Test results as given in patent US20250027939A1.

Target: S protein (UniProt P61823)
Assay: affinity column capture; EGFP fluorescence of column fractions as percent of input

UniProt P61823, sequence (P61823 47-150): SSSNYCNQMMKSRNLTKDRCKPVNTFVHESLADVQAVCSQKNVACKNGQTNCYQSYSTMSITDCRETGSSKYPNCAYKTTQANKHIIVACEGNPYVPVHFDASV

S tag-bearing target protein (EGFP)
percent of input target protein bound: 50%
